This note sets out measurements from the RNAGym collection of RNA variant scans (doi:10.7554/elife.80360).

Sequences and labels used below:
B1: HDV Ribozyme (parent)
chain: GGCCGGCAUGGUCCCAGCCUCCUCGCUGGCGCCGGCUGGGCAACAUUCCGAGGGGACCGUCCCCUCGGUAAUGGCGAAUGGGACCCA

The data set covers variants of B1. The experiment in a line: self-cleavage, relative activity (ratio to wild type); higher = more cleavage; co-transcriptional.
Regarding GGCCGGCAUGGUCCCAGCCUCCUCGCUGGCGCUGGCUCGGCAACAUUCCGAGGGGACCGUCCCCUCGGUAAUGGCGAAUGGGACCCA [C33U G38C], the self-cleavage is 0.125.
Then GGCCGGCAUGGUCCCAGCCUCCUCGCUGGCGCUGGCUUGGCAACAUUCCGAGGGGACCGUCCCCUCGGUAAUGGCGAAUGGGACCCA [C33U G38U], with 0.0978; and GGCCGGCAUGGUCCCAGCCUCCUCGCUGGCGCUGGCUGGGCAACAUUCCGAGGGGACCGUCCCCUCGGUAAUGGCGAAUGGGACUCA [C33U C85U], with 0.831.
The result for GGCCGGCAUGGUCCCAGCCUCCUCGCUGGCGCUGGCUGGGCAACAUUCCGAGGGGACCGUCCCCUCGGUAAUGGCGAAUGGGACACA [C33U C85A] reads 0.831; that for GGCCGGCAUGGUCCCAGCCUCCUCGCUGGCGCUGGCUGGGCAACAUUCCGAGGGGACCGUCCCCUCGGUAAUGGCGGAUGGGACCCA [C33U A77G], 0.554; that for GGCCGGCAUGGUCCCAGCCUCCUCGCUGGCGCUGGCUGGGCAACAUUCCGAGGGGACCGUCCCCUCGGUAAUGGCGUAUGGGACCCA [C33U A77U], 0.439.
Then GGCCGGCAUGGUCCCAGCCUCCUCGCUGGCGCGGGCUGGGCAACAUUCCGAGGGGACCGUCCCCACGGUAAUGGCGAAUGGGACCCA [C33G U65A], with 0.156.
For GGCCGGCAUGGUCCCAGCCUCCUCGCUGGCGCUGGCUGGGCAACAUUCCGAGGGGGCCGUCCCCUCGGUAAUGGCGAAUGGGACCCA [C33U A56G], the self-cleavage came to 0.665.
The result for GGCCGGCAUGGUCCCAGCCUCCUCGCUGGCGCUGGCUGGGCAACAUUCCGAGGGGCCCGUCCCCUCGGUAAUGGCGAAUGGGACCCA [C33U A56C] reads 0.658; that for GGCCGGCAUGGUCCCAGCCUCCUCGCUGGCGCUGGCUGGGCAACAUUCCGAGGGGACCGUCCCCUCGGUAAUGGCGAAUGGCACCCA [C33U G82C], 0.245; that for GGCCGGCAUGGUCCCAGCCUCCUCGCUGGCGCUGGCUGGGCAACAUUCCGACGGGACCGUCCCCUCGGUAAUGGCGAAUGGGACCCA [C33U G52C], 0.596.
The result for GGCCGGCAUGGUCCCAGCCUCCUCGCUGGCGCUGGCUGGGCAACAUUCCGAGGGGACCGUCCCCUCGGUACUGGCGAAUGGGACCCA [C33U A71C] reads 0.374; that for GGCCGGCAUGGUCCCAGCCUCCUCGCUGGCGCUGGCUGGGCAACAUUCCGAGGGGACCGUCCCCUCGGUAUUGGCGAAUGGGACCCA [C33U A71U], 0.65.
For the variant GGCCGGCAUGGUCCCAGCCUCCUCGCUGGCGCUGGCUGGGCAACAUUCCGAGGGGACCGUCCGCUCGGUAAUGGCGAAUGGGACCCA [C33U C63G], the self-cleavage worked out at 0.698.
Then GGCCGGCAUGGUCCCAGCCUCCUCGCUGGCGCUGGCUGGGCAACAUUCCGUGGGGACCGUCCCCUCGGUAAUGGCGAAUGGGACCCA [C33U A51U], with 0.848; and GGCCGGCAUGGUCCCAGCCUCCUCGCUGGCGCUGGCUGGGCAACAUUCCGCGGGGACCGUCCCCUCGGUAAUGGCGAAUGGGACCCA [C33U A51C], with 1.3; and GGCCGGCAUGGUCCCAGCCUCCUCGCUGGCGCUGGCUGGGCAACAUUCCGAGGGGACCGUCCCAUCGGUAAUGGCGAAUGGGACCCA [C33U C64A], with 0.591.
As for GGCCGGCAUGGUCCCAGCCUCCUCGCUGGCGCUGGCUGGGCAACAUUCCGAGGGGACCGUCCCUUCGGUAAUGGCGAAUGGGACCCA [C33U C64U], the self-cleavage came to 0.785.
With GGCCGGCAUGGUCCCAGCCUCCUCGCUGGCGCUGGCUGGGCAACAUUCCGAGGGGACCGUCCCCUCUGUAAUGGCGAAUGGGACCCA [C33U G67U], the self-cleavage is 0.816.
Then GGCCGGCAUGGUCCCAGCCUCCUCGCUGGCGCUGGCUGGGCAACAUUCCGAGGGGACCGUCCCCUCCGUAAUGGCGAAUGGGACCCA [C33U G67C], with 0.771; and GGCCGGCAUGGUCCCAGCCUCCUCGCUGGCGCUGGCUGGGCAACAUUCUGAGGGGACCGUCCCCUCGGUAAUGGCGAAUGGGACCCA [C33U C49U], with 1.06; and GGCCGGCAUGGUCCCAGCCUCCUCGCUGGCGCUGGCUGGGCAACAUUCCGAGGGGACCGUCCCCUCGGUAAUGGCGAUUGGGACCCA [C33U A78U], with 0.378.
The result for GGCCGGCAUGGUCCCAGCCUCCUCGCUGGCGCUGGCUGGGCAACAUUCCGAGGGGACCAUCCCCUCGGUAAUGGCGAAUGGGACCCA [C33U G59A] reads 0.897; that for GGCCGGCAUGGUCCCAGCCUCCUCGCUGGCGCUGGCUGGGCAACGUUCCGAGGGGACCGUCCCCUCGGUAAUGGCGAAUGGGACCCA [C33U A45G], 0.886; that for GGCCGGCAUGGUCCCAGCCUCCUCGCUGGCGCUGGCUGGGCAACCUUCCGAGGGGACCGUCCCCUCGGUAAUGGCGAAUGGGACCCA [C33U A45C], 0.494.
The result for GGCCGGCAUGGUCCCAGCCUCCUCGCUGGCGCUGGCUGGGCAACAUUCCGAGGGGACGGUCCCCUCGGUAAUGGCGAAUGGGACCCA [C33U C58G] reads 0.929; that for GGCCGGCAUGGUCCCAGCCUCCUCGCUGGCGCUGGCUGGGCAACAUUCCGAGGGGACUGUCCCCUCGGUAAUGGCGAAUGGGACCCA [C33U C58U], 0.917; that for GGCCGGCAUGGUCCCAGCCUCCUCGCUGGCGCUGGCUGGGCAACAUUCCGAGGGGACCGUCCCCUCGGUAAUGGCGAAUCGGACCCA [C33U G80C], 0.143.
With GGCCGGCAUGGUCCCAGCCUCCUCGCUGGCGCUAGCUGGGCAACAUUCCGAGGGGACCGUCCCCUCGGUAAUGGCGAAUGGGACCCA [C33U G34A], the self-cleavage came out at 0.293.
Then GGCCGGCAUGGUCCCAGCCUCCUCGCUGGCGCUCGCUGGGCAACAUUCCGAGGGGACCGUCCCCUCGGUAAUGGCGAAUGGGACCCA [C33U G34C], with 0.0978.
For GGCCGGCAUGGUCCCAGCCUCCUCGCUGGCGCGGGCUGGGCAACAUCCCGAGGGGACCGUCCCCUCGGUAAUGGCGAAUGGGACCCA [C33G U47C], the self-cleavage is 0.317.
Consider GGCCGGCAUGGUCCCAGCCUCCUCGCUGGCGCGGGCUGGGCAACAUACCGAGGGGACCGUCCCCUCGGUAAUGGCGAAUGGGACCCA [C33G U47A], for which the self-cleavage amounted to 0.227.
